Series [1] in a line: Micro-CT 2D X-ray snapshot imaging of contrast media solutions in tubes. On the procedure:
Prior to the in vivo injection of CT contrast media (250 mg/mL) including Compounds 1c, 2c, 3c, or 4c of Examples 1 to 4 prepared in the Preparation Step, 2D X-ray snapshot images of these solutions and two commercially available CT contrast media each for human or animal application were obtained using micro-CT to compare their relative X-ray absorption in tubes under the same conditions as a preliminary evaluation.
Overall, eight 250 μL-tubes were prepared each containing the following: 250 μL each of four CT contrast media prepared in the Preparation Step, 250 μL of “Fenestra VC”, 250 μL of “Iobrix”, 250 μL of 20 mM Tris buffer solution (pH 7.4, 0.1 mg/mL EDTA included) as a negative control group, and one empty tube as a negative control group. These eight tubes were then arranged side by side in parallel on the imaging bed of a NFR Polaris-G90 in vivo micro-CT scanner (manufacturer: NanoFocusRay), and 2D X-ray snapshot images were taken [imaging parameters: 60 kVp, 60 μA, 500 ms exposure time, field of view (FOV) 80.00×83.71 mm^2, 1.4× magnification].

The subject of series [2] is Human epithelial cervical cancer (HeLa) cell line. Type of series: cell-based. The conditions noted are these: HeLa cells. On the procedure:
Human epithelial cervical cancer (HeLa) cell line was obtained from American Type Culture Collection (ATCC, Manassas, Va.) and maintained at 37° C. under a 5% carbon dioxide (CO2) atmosphere in Dulbecco's modified eagle medium (DMEM, Gibco) supplemented with 10% fetal bovine serum (FBS), 50 U/mL penicillin, and 50 μg/mL streptomycin. Stock solutions of PAMAM-PEG2000-TIPAA conjugate Compounds 1c-4c were prepared by dissolving 10 mg of each vacuum-dried solid sample in 1.0 mL of deionized water (Millipore Milli-Q) to make a 10 mg/mL solution. Each stock solution was sonicated briefly to ensure homogeneity. Serial dilutions were carried out using serum-free DMEM to prepare samples of the following concentrations: 1, 5, 10, 50, 100, and 500 μg/mL. HeLa cells were seeded in a flat bottomed 96-well plate (Corning Costar, Cambridge, Mass.) at a density of 1×10^3 cells per well and incubated for 24 hours at 37° C. under a 5% CO2 atmosphere to allow cell attachment. Cells were treated with 100 μL of each dilution or 100 μL of serum-free DMEM (as a control) per well and incubated at 37° C. under a 5% CO2 atmosphere for 24, 48, or 72 hours. The formulations were replaced with serum-free DMEM containing 5 mg/mL 3-(4,5-dimethylthiazol-2-yl)-2,5-diphenyltetrazolium bromide (MTT) and cells were incubated for additional 4 hours. MTT was removed by aspiration and DMSO (100 μL) was added to each well to dissolve the formazan crystals [Mosmann, T., J. Immunol. Methods 1983, 65, 55-63]. Assays were carried out in quadruplicates.

The format of series [3] is physicochemical. On the procedure: (§1) Sample solutions for in vivo injections as CT contrast agents were prepared by dissolving each PAMAM-PEG2000-TIPAA conjugate (Compound 1c, 2c, 3c, or 4c) at 250 mg/mL in the sterilized 20 mM Tris buffer (242 mg tromethamine and 10 mg EDTA dissolved in 100 mL of deionized water (Millipore Milli-Q), pH 7.4). The resulting solution was sonicated briefly to ensure homogeneity and stored at 4° C., if not used immediately. Before the injection to the animal, the contrast agent solutions were removed from the fridge, warmed to room temperature, and agitated by vortex.
The results of the viscosity (30° C.) and osmolality measurements of the CT contrast media solutions of the present invention are summarized in the following Table 1.
In Table 1, the values are presented as the mean±standard deviation. Five independent measurements were made for each compound under the same conditions, and the mean and standard deviation were calculated after excluding the highest and lowest values (i.e., 3 data).

The next series deals with C57BL/6 mice. Put plainly: In vivo micro-CT imaging evaluation. On the procedure: Specifically, 6 to 8 weeks old healthy male C57BL/6 mice (Orient Bio, Korea) having the weight typically ranging from 15 g to 22 g were used as small animals. Each mouse was not fed water and food starting from approximately 12 hours before the injection of the contrast medium until the completion of CT imaging at 4 hours post-injection. The mice were fed water and food immediately after the completion of CT imaging at 4 hours post-injection. Before the injection of the contrast media, each mouse was anaesthetized in an induction chamber by administering 3% isoflurane in oxygen for about 5 minutes. Subsequently, the mouse was placed onto the imaging bed of a NFR Polaris-G90 in vivo micro-CT scanner (NanoFocusRay, Korea) lying in a prone position, and then the baseline (i.e., pre-contrast) scan was performed as a negative control group while being anesthesized by administering 1.5% isoflurane in oxygen [imaging parameters: 60 kVp, 60 μA, 500 ms exposure time, 360° scan angle, 600 scan number, 512 slices (i.e., image number); FOV: 80.00×83.71 mm^2 for low resolution whole-body imaging (1.4× magnification), 33.94×35.52 mm^2 for mid resolution chest and abdominal imaging (3.3× magnification), and 26.67×27.90 mm^2 for high resolution brain imaging (4.2× magnification)]. Next, the tail vein of the mouse was expanded by immersing the tail in a warm water for about 30 to 60 seconds while maintaining the mouse under anesthesia by administering 1.5% isoflurane in oxygen, and the corresponding amount of each contrast medium (15 mL/kg for the contrast media including the compounds of Examples 1 to 4, 10 mL/kg for “Fenestra VC”, and 2.5 mL/kg for “Iobrix”) was slowly injected into the tail vein of each mouse. Immediately after the injection of the contrast medium, the mouse was placed onto the imaging bed of a micro-CT scanner lying in a prone position, and the CT scan was performed at the corresponding resolution (low, mid, or high) while being anesthesized by administering 1.5% isoflurane in oxygen. […]

The nature of series [4]: Dissolving the compound in buffer solution for a contrast medium. It is filed as physicochemical. The note with it: concentration appropriate for CT imaging. On the procedure: as §1
Setting [5] is: 250 μL in tube, 2D X-ray snapshot, 60 kVp, 60 μA, own media 250 mg/mL.
[6] abbreviates: incubated for 72 hours, 500 μg/mL, MTT.
Setting [7] is: 250 mg/mL in 20 mM Tris buffer pH 7.4, mean±standard deviation.
Setting [8] is: 30° C., 250 mg/mL in 20 mM Tris buffer pH 7.4, mean±standard deviation.

Where two headings read alike, the source gives them in different places.

In series [1] (setting [5]), “G1 PAMAM-mPEG2000-TIPAA Conjugate [Example 1]” had a X-ray transmission intensity of 904.5. In series [2] (setting [6]), the cell survival rate turned out to be 88.5%. The Osmolality in series [3] (setting [7]) is listed as 464.75 ± 3.59 mOsm/kg. The substance further returned a Viscosity in series [3] (setting [8]) of 15.32 ± 0.39 mPa · s. Moreover, the “amount found in the kidney” value with C57BL/6 mice (mice, images at 1 hour after injection) is listed as “a considerable amount thereof was found in the kidney within a relatively short period of time”. Moreover, the “excretion (route and rate)” value in the series with C57BL/6 mice (mice, tail vein injection, whole-body CT images) was “mostly through kidney to bladder”.
The substance “G3 PAMAM-mPEG2000-TIPAA Conjugate [Example 3]” showed a X-ray transmission intensity in series [1] of 826.5. The substance further yielded a cell survival rate in series [2] (human, 72 h, 500 µg/mL) of 88.4%. Also, in series [3] (pH 7.4), the Osmolality is on record as 225.75 ± 1.26 mOsm/kg and the Viscosity was determined as 16.15 ± 0.53 mPa · s.
Take “G2 PAMAM-mPEG2000-TIPAA Conjugate [Example 2]”: the X-ray transmission intensity in series [1] was 838.0. This substance also came in with a cell survival rate in series [2] (human, 72 h, 500 µg/mL) of 88.4%. Moreover, in series [3] (pH 7.4), the Osmolality is listed as 233.50 ± 9.75 mOsm/kg and the Viscosity turned out to be 16.47 ± 0.80 mPa · s.
Take “G4 PAMAM-mPEG2000-TIPAA Conjugate [Example 4]”: in series [1] (setting [5]), the X-ray transmission intensity turned out to be 827.0. This substance yielded a cell survival rate in series [2] (setting [6]) of 87.9%. The Osmolality in series [3] (setting [7]) worked out at 242.00 ± 4.08 mOsm/kg. Moreover, the Viscosity in series [3] (setting [8]) amounted to 16.31 ± 0.61 mPa · s. Besides, the “ease of dissolving in a buffer solution” value in series [4] was “more difficult to dissolve”. In the series with C57BL/6 mice (during injection), the “thickness of contrast medium solution felt during the injection” value is listed as “felt thicker than Compound 2c of Example 2 or Compound 3c of Example 3”.
